B1: CNNM4_(BAT-cNMP-Ctail) (complete intracellular region of human CNNM4, residues 356-775) [human] / itself (parent)
chain: KEELNMIQGALELRTKTVEDIMTQLQDCFMIRSDAILDFNTMSEIMESGYTRIPVFEDEQSNIVDILYVKDLAFVDPDDCTPLKTITRFYNHPVHFVFHDTKLDAMLEEFKKGKSHLAIVQKVNNEGEGDPFYEVLGLVTLEDVIEEIIKSEILDESDMYTDNRSRKRVSEKNKRDFSAFKDADNELKVKISPQLLLAAHRFLATEVSQFSPSLISEKILLRLLKYPDVIQELKFDEHNKYYARHYLYTRNKPADYFILILQGKVEVEAGKENMKFETGAFSYYGTMALTSVPSDRSPAHPTPLSRSASLSYPDRTDVSTAATLAGSSNQFGSSVLGQYISDFSVRALVDLQYIKITRQQYQNGLLASRMENSPQFPIDGCTTHMENLAEKSELPVVDETTTLLNERNSLLHKASHENAI
B2: CNNM4_(cNMP) (human CNNM4 cyclic nucleotide monophosphate binding-like domain, residues 545-730) [modified: SeMet labeled in the crystals; SeMet labeled in the crystals] [human] / itself (parent)
chain: KISPQLLLAAHRFLATEVSQFSPSLISEKILLRLLKYPDVIQELKFDEHNKYYARHYLYTRNKPADYFILILQGKVEVEAGKENMKFETGAFSYYGTMALTSVPSDRSPAHPTPLSRSASLSYPDRTDVSTAATLAGSSNQFGSSVLGQYISDFSVRALVDLQYIKITRQQYQNGLLASRMENSPQ

What was measured:
[1] = variants of: B1; assay: SEC-MALS; details: with itself, monomer MW = 47,861.17 Da
[2] = variants of: B2; assay: SEC-MALS; details: with itself, monomer Mw = 20936.78 Da

screen value ([1]; 1 mg/mL (dotted lines)) [Da]	screen value ([1]; 10 mg/mL (solid lines)) [Da]	screen value ([2]; 1 mg/mL (dotted lines)) [Da]	screen value ([2]; 10 mg/mL (solid lines)) [Da]	Variant
49200	60900	–	–	chain 1 F276A
–	–	21700	26400	chain 1 F87A

From PMC6940986, “Structural Insights into the Intracellular Region of the Human Magnesium Transport Mediator CNNM4” (International Journal of Molecular Sciences, 2019)
